In PMC4303301:

Columns and labels:
purified protein [1] = substrate: O=P(O)(O)OC[C@H](O)[C@H](O)[C@H](O)CO; assay: purified protein; details: 50 mM Tris-HCl pH 7.5, 1 mM MgCl2, 25 °C
purified protein [2] = substrate: O=P(O)(O)OC[C@@H](O)[C@@H](O)[C@@H](O)CO; assay: purified protein; details: 50 mM Tris-HCl pH 7.5, 1 mM MgCl2, 25 °C

B1: EFI-501083; putative 5-amino-6-(5-phospho-D-ribitylamino) uracil phosphatase (Bacteroides thetaiotaomicron VPI-5482) (protein)
chain: MIKNIVFDFGGVIVDIDRDKAVQAFIKLGLADADTRLDKYHQTGIFQELEEGKLSADEFRKQLGDLCGRELTMEETKQAWLGFFNEVDLRKLDYILGLRKSYHVYLLSNTNPFVMSWACSPEFSSEGKPLNDYCDKLYLSYQLGHTKPAPEIFDFMIKDSHVIPSETLFVDDGSSNIHIGKELGFETFQPENGADWRQELTVILNS
**Q.** Which Km (purified protein [1]) does the source give for B1 here?
**A.** The Km was 1030 ± 180 µM.

**Q.** What about the kcat (purified protein [1]) of the same protein?
**A.** The kcat was 1.8 ± 0.1 s⁻¹.

**Q.** What about the kcat/Km (purified protein [1]) of the same protein?
**A.** The kcat/Km was 1700 M⁻¹ s⁻¹.

**Q.** What about the Km (purified protein [2]) of the same protein?
**A.** The Km was 1080 ± 140 µM.

**Q.** What about the kcat (purified protein [2]) of the same protein?
**A.** The kcat was 1.5 ± 0.1 s⁻¹.

**Q.** What about the kcat/Km (purified protein [2]) of the same protein?
**A.** Its kcat/Km is 1400 M⁻¹ s⁻¹.
